Assay results taken from the supplement of paper PMC12042874.
± gives the uncertainty stated by the source.

test: amyloid nucleation score (Sup35N fusion, yeast selection) (log enrichment); library NNK1; higher = more nucleation; inactive = no reads after selection
Outline: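 Sup35N was fused to peptides of 20 random codons and expressed in psi-negative yeast, which were induced with 100 μM copper sulfate for 24 hours and then grown on medium lacking adenine and uracil for 7 days at 30°C. Plasmid inserts from input and output were sequenced on Illumina. The nucleation score is the DiMSum log enrichment of output over input reads, centred on the mode score of non-aggregating sequences. Sequences with under 100 input reads were left out, and random libraries had three technical output replicates.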

Substance | amyloid nucleation score
TEEFYPARSCMK | -1.87 ± 1.3
EGLTNMWGGSYYNGLTFMGQ | -0.754 ± 0.54
DLSWGSRHY | -0.899 ± 0.42
MLTNVSNICYWNDVVGDSLA | 0.838 ± 0.28
HRQGYVWYLLR | 1.43 ± 0.24
KYRASYRNHRDMGDSAVYGY | 0.044 ± 0.26
CCVGWCFPACLLFST | 7.42 ± 0.079
IHNFIVSRDRMTGENGSGCM | -0.944 ± 0.41
PERNNEYHVMLTRHRCHQGC | -1.41 ± 2.4
YSYAGSLMAWSRKVHMHTEV | -0.19 ± 0.57
WGFRENETMV | -0.742 ± 0.46
HRRSLRVGLSDIHLLAACAE | -0.897 ± 1.6
LFHCRSIDRNLYYRHAFLIY | 0.466 ± 0.39
CGYSKVPMPCALAECGGRPR | 0.054 ± 0.45
TTFFSGIYKKASLFYRHFVL | -0.812 ± 0.28
YPLSLRYQCI | 0.2 ± 0.25
HAFKPSAAPQWRTYPRFRSG | inactive
PAGTGINLMICVARGGRTSG | 5.24 ± 0.1
GMLRVYWSMSSVFSGMCDRC | 3.94 ± 0.1
RGYMCHCRVVSACFLYRKVQ | -0.044 ± 0.25
MMLSLISVQV | 0.379 ± 0.68
PFSGFLCSRVCAMVDKTLFS | inactive

Substance | amyloid nucleation score
SNGRFWYMADSVST | inactive
YYQRGVDYNIVFLRT | 1.16 ± 0.52
CTFKAWRLYSVNKDSRIVLK | -0.576 ± 1.1
LTRAWSGWYVTFMGGEILIR | -0.118 ± 0.49
KDISITCLLYPKNHSGYSGT | 0.058 ± 0.25
YYAHSGMWYAMSDQKGAVG | 0.552 ± 0.67
DLPLTYMCSN | 0.359 ± 0.7
GPTATVPPRHTREFILFKYS | -0.593 ± 1
GTCYFTDQR | 0.491 ± 0.37
MWGMF | -0.132 ± 0.35
SVLDFNNYMEIVAQVKGEDP | inactive
MWHGSVTMGGIRGTRDSVHQ | 0.792 ± 0.53
FMFDNYIGRSGSGGCSGDGR | -0.417 ± 1.2
LNLRGDRN | 0.304 ± 0.29
LGRSENDI | 1.19 ± 0.4
EENLSSPWMPMVPIDTINWF | 1.67 ± 0.52
GLREMRNISAVFCFRLYICL | 1.58 ± 0.14
FIASGPVHLRLYAKFNNFHL | 8.643 ± 0.06
MAGYL | -0.078 ± 0.48
VTCWPDICRSFYMIVLHCFR | 0.141 ± 0.7
ARTMKDYPLRTYVYYAPAGY | 0.453 ± 0.75
PTRDCRVNKGSLMWTP | -0.213 ± 0.59

Substance | amyloid nucleation score
EGLARCQCLCLTRVIYVESA | -0.403 ± 1.4
ASGLMLFIMPFRWGWNSVFT | 0.683 ± 0.42
LIAPGFPERCRQGRMYEF | -0.234 ± 1.2
MVAIMQISMGSAVFLYAR | 4.24 ± 0.097
WFDELGRDFLV | -0.193 ± 1.6
TAYVLLWTRTVFVFPEVHTF | 0.887 ± 0.43
LTFLYLYWNFNIYGIYGTTI | 0.91 ± 0.19
FRYKDGCSFSTAVDYSCRMF | 1.06 ± 0.23
MPRLTDRDKLCDFVNLQFIF | 6.7 ± 0.073
YGLDPHSAAEALLVRPNTGR | -0.18 ± 0.41
NACDCQPMFVMQWYRRVEPR | -0.167 ± 0.53
SYWKNTVSCYVFFGMSRSRT | -0.634 ± 1.4
LALMFFNLKSCIFMSMWLFT | 1.65 ± 0.57
GVMQFENIYGFVALMRRLMF | 0.668 ± 0.62
NLTSVPYMPLECDYHARSYF | -1.55 ± 1.2
AGFQFSIDYR | 0.259 ± 0.51
GDLGCVYSLFRSLFSSFTRS | 0.111 ± 0.35
IKLFARGGI | 0.39 ± 0.59
YASGLNSHDELVFYFYNRER | inactive
SVTERCKLQSHHDMVGGM | 3.37 ± 0.13
HGAFMVPT | 0.895 ± 0.79
SLNGMTYVSMIVRSD | 1.41 ± 0.39

Substance | amyloid nucleation score
RLLWRWWRAVDVRGHDRLNL | -0.306 ± 1.2
MRNIVWCCSVVLCCLFGVLF | 0.385 ± 0.69
LRLCWLNQVRNKQGL | -0.481 ± 0.92
CELRTD | inactive
SLYLGNSGSDLGD | 0.2 ± 1.1
TAALFLAMLGDYVVSNMWTT | inactive
HARRRCLDGFDMQGGIFM | 0.047 ± 0.47
SKVCE | 0.085 ± 0.66
DNLSIWGL | -0.629 ± 0.89
TFGVVEFSRNRGMSLCETLN | 0.386 ± 0.42
GDKCLVTYCYLLGDGEGQQS | -0.05 ± 0.43
TYLFSTVGVSGSSMSQVYIV | -0.387 ± 0.46
GWNRTTSHWIRVFYCAVLVC | -0.346 ± 0.53
NVLVQGFG | -0.017 ± 0.66
VLMFIINSCKR | 7.028 ± 0.052
DWVELR | -0.101 ± 0.86
QHVFWIYPLPTLSSYGTARS | -0.227 ± 1.9
TYTCVNPVGHFTGGNRGILW | 0.425 ± 1.1
NYHFDWLRFFRHQREVGEVA | 0.4 ± 0.8
SCSVYTGYSYGLRYNFDLVS | -1.81 ± 2.4
